Molecular target: T1, KRAS-G12V antigen (RAS G12V-T15 peptide) (Homo sapiens, UniProt P01116, G12V)
T1 construct: endogenous in cells; host or cells: patient B13 autologous LCL cells (endogenous HLA-DP); the peptide is synthetic
Assay: TCR mutant screening in Jurkat-NFAT-Luc cells with antigen-loaded B13 LCL cells (ONE Glo Luciferase)
Type: cell-based
Settings: MHC-II binding region mutants; ratio to wild-type B13.14.1 TCR; 16-24 hours
Method: According to the table below, point mutations were performed on the Vα and Vβ of B13.14.1 TCR (including CDR3 region and […]), and a lentiviral vector shuttle plasmid encoding the TCR mutant was constructed, packaged with the standard lentiviral vector in 293T cells, and B13.14.1TCR mutant were subjected to function screening.
The TCR mutant (CDR3 region) lentiviral vector was transduced into Jurkat-NFAT-Luc cell line, and B13 LCL cells loaded with KRAS-G12V antigen (RAS G12V-T15 peptide, SEQ ID NO: 5) were used as antigen-presenting cells. 2×10^4 TCR-T and 2×10^4 antigen-loaded B13 LCL cells were co-cultured for 16-24 hours, and added with ONE Glo Luciferase to detect the expression of fluorescent signal, and the TCR Mut RLU/WT RLU (ratio of RLU signal value of TCR mutant to RLU signal value of wild-type B13.14.1 TCR) was calculated.
The TCR mutant (MHC-II binding region) lentiviral vector was transduced into the Jurkat-NFAT-Luc cell line, and B13 LCL cells loaded with KRAS-G12V antigen (RAS G12V-T15 peptide, SEQ ID NO: 5) were used as the antigen-presenting cells. 2×10^4 TCR-T and 2×10^4 antigen-loaded B13 LCL cells were co-cultured for 16-24 hours, the fluorescence signal expression was detected by adding ONE Glo Luciferase, and TCR Mut RLU/WT RLU (ratio of RLU signal value of TCR mutant to RLU signal value of wild-type B13.14.1TCR) was calculated.

Row | Molecule | TCR Mut RLU/WT RLU [%]
1 | α32Y-A: B13.14.1 TCR Vα point mutant (protein) TCR alpha: AQSVAQPEDQVNVAEGNPLTVKCTYSVSGNPALFWYVQYPNRGLQFLLKYITGDNLVKGSYGFEAEFNKSQTSFHLKKPSALVSDSALYFCAVRDGRGGGNKLTFGTGTQLKVEL TCR beta: GITQSPKYLFRKEGQNVTLSCEQNLNHDAMYWYRQDPGQGLRLIYYSQIVNDFQKGDIAEGYSVSREKKESFPLTVTSAQKNPTAFYLCASSPGQRDNSPLHFGNGTRLTVT | 4.68
2 | α32Y-I: B13.14.1 TCR Vα point mutant (protein) TCR alpha: AQSVAQPEDQVNVAEGNPLTVKCTYSVSGNPILFWYVQYPNRGLQFLLKYITGDNLVKGSYGFEAEFNKSQTSFHLKKPSALVSDSALYFCAVRDGRGGGNKLTFGTGTQLKVEL TCR beta: GITQSPKYLFRKEGQNVTLSCEQNLNHDAMYWYRQDPGQGLRLIYYSQIVNDFQKGDIAEGYSVSREKKESFPLTVTSAQKNPTAFYLCASSPGQRDNSPLHFGNGTRLTVT | 4.64
3 | α32Y-E: B13.14.1 TCR Vα point mutant (protein) TCR alpha: AQSVAQPEDQVNVAEGNPLTVKCTYSVSGNPELFWYVQYPNRGLQFLLKYITGDNLVKGSYGFEAEFNKSQTSFHLKKPSALVSDSALYFCAVRDGRGGGNKLTFGTGTQLKVEL TCR beta: GITQSPKYLFRKEGQNVTLSCEQNLNHDAMYWYRQDPGQGLRLIYYSQIVNDFQKGDIAEGYSVSREKKESFPLTVTSAQKNPTAFYLCASSPGQRDNSPLHFGNGTRLTVT | 4.59
4 | α32Y-G: B13.14.1 TCR Vα point mutant (protein) TCR alpha: AQSVAQPEDQVNVAEGNPLTVKCTYSVSGNPGLFWYVQYPNRGLQFLLKYITGDNLVKGSYGFEAEFNKSQTSFHLKKPSALVSDSALYFCAVRDGRGGGNKLTFGTGTQLKVEL TCR beta: GITQSPKYLFRKEGQNVTLSCEQNLNHDAMYWYRQDPGQGLRLIYYSQIVNDFQKGDIAEGYSVSREKKESFPLTVTSAQKNPTAFYLCASSPGQRDNSPLHFGNGTRLTVT | 4.03
5 | α32Y-H: B13.14.1 TCR Vα point mutant (protein) TCR alpha: AQSVAQPEDQVNVAEGNPLTVKCTYSVSGNPHLFWYVQYPNRGLQFLLKYITGDNLVKGSYGFEAEFNKSQTSFHLKKPSALVSDSALYFCAVRDGRGGGNKLTFGTGTQLKVEL TCR beta: GITQSPKYLFRKEGQNVTLSCEQNLNHDAMYWYRQDPGQGLRLIYYSQIVNDFQKGDIAEGYSVSREKKESFPLTVTSAQKNPTAFYLCASSPGQRDNSPLHFGNGTRLTVT | 5.60
6 | α32Y-L: B13.14.1 TCR Vα point mutant (protein) TCR alpha: AQSVAQPEDQVNVAEGNPLTVKCTYSVSGNPLLFWYVQYPNRGLQFLLKYITGDNLVKGSYGFEAEFNKSQTSFHLKKPSALVSDSALYFCAVRDGRGGGNKLTFGTGTQLKVEL TCR beta: GITQSPKYLFRKEGQNVTLSCEQNLNHDAMYWYRQDPGQGLRLIYYSQIVNDFQKGDIAEGYSVSREKKESFPLTVTSAQKNPTAFYLCASSPGQRDNSPLHFGNGTRLTVT | 6.35
7 | α32Y-F: B13.14.1 TCR Vα point mutant (protein) TCR alpha: AQSVAQPEDQVNVAEGNPLTVKCTYSVSGNPFLFWYVQYPNRGLQFLLKYITGDNLVKGSYGFEAEFNKSQTSFHLKKPSALVSDSALYFCAVRDGRGGGNKLTFGTGTQLKVEL TCR beta: GITQSPKYLFRKEGQNVTLSCEQNLNHDAMYWYRQDPGQGLRLIYYSQIVNDFQKGDIAEGYSVSREKKESFPLTVTSAQKNPTAFYLCASSPGQRDNSPLHFGNGTRLTVT | 3.81

Second part, the molecule after the results:

Row | TCR Mut RLU/WT RLU [%] | Molecule
8 | 21.00 | β51I-S: B13.14.1 TCR Vβ point mutant (protein) TCR alpha: AQSVAQPEDQVNVAEGNPLTVKCTYSVSGNPYLFWYVQYPNRGLQFLLKYITGDNLVKGSYGFEAEFNKSQTSFHLKKPSALVSDSALYFCAVRDGRGGGNKLTFGTGTQLKVEL TCR beta: GITQSPKYLFRKEGQNVTLSCEQNLNHDAMYWYRQDPGQGLRLIYYSQSVNDFQKGDIAEGYSVSREKKESFPLTVTSAQKNPTAFYLCASSPGQRDNSPLHFGNGTRLTVT
9 | 3.98 | α32Y-P: B13.14.1 TCR Vα point mutant (protein) TCR alpha: AQSVAQPEDQVNVAEGNPLTVKCTYSVSGNPPLFWYVQYPNRGLQFLLKYITGDNLVKGSYGFEAEFNKSQTSFHLKKPSALVSDSALYFCAVRDGRGGGNKLTFGTGTQLKVEL TCR beta: GITQSPKYLFRKEGQNVTLSCEQNLNHDAMYWYRQDPGQGLRLIYYSQIVNDFQKGDIAEGYSVSREKKESFPLTVTSAQKNPTAFYLCASSPGQRDNSPLHFGNGTRLTVT
10 | 22.56 | β51I-W: B13.14.1 TCR Vβ point mutant (protein) TCR alpha: AQSVAQPEDQVNVAEGNPLTVKCTYSVSGNPYLFWYVQYPNRGLQFLLKYITGDNLVKGSYGFEAEFNKSQTSFHLKKPSALVSDSALYFCAVRDGRGGGNKLTFGTGTQLKVEL TCR beta: GITQSPKYLFRKEGQNVTLSCEQNLNHDAMYWYRQDPGQGLRLIYYSQWVNDFQKGDIAEGYSVSREKKESFPLTVTSAQKNPTAFYLCASSPGQRDNSPLHFGNGTRLTVT
11 | 5.77 | α32Y-S: B13.14.1 TCR Vα point mutant (protein) TCR alpha: AQSVAQPEDQVNVAEGNPLTVKCTYSVSGNPSLFWYVQYPNRGLQFLLKYITGDNLVKGSYGFEAEFNKSQTSFHLKKPSALVSDSALYFCAVRDGRGGGNKLTFGTGTQLKVEL TCR beta: GITQSPKYLFRKEGQNVTLSCEQNLNHDAMYWYRQDPGQGLRLIYYSQIVNDFQKGDIAEGYSVSREKKESFPLTVTSAQKNPTAFYLCASSPGQRDNSPLHFGNGTRLTVT
12 | 4.94 | α32Y-M: B13.14.1 TCR Vα point mutant (protein) TCR alpha: AQSVAQPEDQVNVAEGNPLTVKCTYSVSGNPMLFWYVQYPNRGLQFLLKYITGDNLVKGSYGFEAEFNKSQTSFHLKKPSALVSDSALYFCAVRDGRGGGNKLTFGTGTQLKVEL TCR beta: GITQSPKYLFRKEGQNVTLSCEQNLNHDAMYWYRQDPGQGLRLIYYSQIVNDFQKGDIAEGYSVSREKKESFPLTVTSAQKNPTAFYLCASSPGQRDNSPLHFGNGTRLTVT
13 | 88.58 | β51I-T: B13.14.1 TCR Vβ point mutant (protein) TCR alpha: AQSVAQPEDQVNVAEGNPLTVKCTYSVSGNPYLFWYVQYPNRGLQFLLKYITGDNLVKGSYGFEAEFNKSQTSFHLKKPSALVSDSALYFCAVRDGRGGGNKLTFGTGTQLKVEL TCR beta: GITQSPKYLFRKEGQNVTLSCEQNLNHDAMYWYRQDPGQGLRLIYYSQTVNDFQKGDIAEGYSVSREKKESFPLTVTSAQKNPTAFYLCASSPGQRDNSPLHFGNGTRLTVT
14 | 3.77 | α32Y-T: B13.14.1 TCR Vα point mutant (protein) TCR alpha: AQSVAQPEDQVNVAEGNPLTVKCTYSVSGNPTLFWYVQYPNRGLQFLLKYITGDNLVKGSYGFEAEFNKSQTSFHLKKPSALVSDSALYFCAVRDGRGGGNKLTFGTGTQLKVEL TCR beta: GITQSPKYLFRKEGQNVTLSCEQNLNHDAMYWYRQDPGQGLRLIYYSQIVNDFQKGDIAEGYSVSREKKESFPLTVTSAQKNPTAFYLCASSPGQRDNSPLHFGNGTRLTVT
15 | 19.64 | β51I-Y: B13.14.1 TCR Vβ point mutant (protein) TCR alpha: AQSVAQPEDQVNVAEGNPLTVKCTYSVSGNPYLFWYVQYPNRGLQFLLKYITGDNLVKGSYGFEAEFNKSQTSFHLKKPSALVSDSALYFCAVRDGRGGGNKLTFGTGTQLKVEL TCR beta: GITQSPKYLFRKEGQNVTLSCEQNLNHDAMYWYRQDPGQGLRLIYYSQYVNDFQKGDIAEGYSVSREKKESFPLTVTSAQKNPTAFYLCASSPGQRDNSPLHFGNGTRLTVT
16 | 5.60 | α32Y-R: B13.14.1 TCR Vα point mutant (protein) TCR alpha: AQSVAQPEDQVNVAEGNPLTVKCTYSVSGNPRLFWYVQYPNRGLQFLLKYITGDNLVKGSYGFEAEFNKSQTSFHLKKPSALVSDSALYFCAVRDGRGGGNKLTFGTGTQLKVEL TCR beta: GITQSPKYLFRKEGQNVTLSCEQNLNHDAMYWYRQDPGQGLRLIYYSQIVNDFQKGDIAEGYSVSREKKESFPLTVTSAQKNPTAFYLCASSPGQRDNSPLHFGNGTRLTVT
17 | 35.46 | β51I-V: B13.14.1 TCR Vβ point mutant (protein) TCR alpha: AQSVAQPEDQVNVAEGNPLTVKCTYSVSGNPYLFWYVQYPNRGLQFLLKYITGDNLVKGSYGFEAEFNKSQTSFHLKKPSALVSDSALYFCAVRDGRGGGNKLTFGTGTQLKVEL TCR beta: GITQSPKYLFRKEGQNVTLSCEQNLNHDAMYWYRQDPGQGLRLIYYSQVVNDFQKGDIAEGYSVSREKKESFPLTVTSAQKNPTAFYLCASSPGQRDNSPLHFGNGTRLTVT

From patent US20240000834A1, “RAS MUTANT EPITOPE PEPTIDE AND T CELL RECEPTOR RECOGNIZING RAS MUTANT” (SHANGHAI GENBASE BIOTECHNOLOGY CO., LTD., priority 2020, published 2024)
